Results reported in article doi:10.1101/800169 (bioRxiv, 2019).

B1: EccE3 (natural protein)
chain: MTARIALASLFVVAAVLAQPWQTTTQRWVLGVSIAAVIVLLAWWKGMFLTTRIGRALAMVRRNRAEDTVETDAHRATVVLRVDPAAPAQLPVVVGYLDRYGITCDKVRITHRDAGGTRRSWISLTVDAVDNLAALQARSARIPLQDTTEVVGRRLADHLREQGWTVTVVEGVDTPLPVSGKETWRGVADDAGVVAAYRVKVDDRLDEVLAEIGHLPAEETWTALEFTGSPAEPLLTVCAAVRTSDRPAAKAPLAGLTPARGRHRPALAALNPLSTERLDGTAVPLPAVVRTSVKGSVEHEAAQEAGHPA
B2: EccB3 (natural protein)
chain: MTGPVNPDDRRSFSSRTPVNENPDGVQYRRGFVTRHQVSGWRFVMRRIASGVALHDTRMLVDPLRTQSRAVLTGALILVTGLVGCFIFSLFRPGGVPGNNAILADRSTSALYVRVGEQLHPVLNLTSARLISGSPDNPTMVKTSEIDKFPRGNLLGIPGAPERMVQNAATDAEWTVCDAVGGANPGVTVIAGPLGADGERAAPLPPDHAVLVHSDAEPNPGDWLLWDGKRSPIDLADRAVTDALGLGGQALAPRPIAAGLFNAVPAAPALTAPVIPDAGAAPQFELSLPVPVGAVVVAYDADNTARYYAVLSDGLQPISPVLAAILRNTDSHGFAQPPRLGPDEVARTPMSRGLDTSAYPDNPVTLVEASAHPVTCAHWTKPSDAAESSLSVLSGAVLPLAEGLHTVDLVGAGAGGAANRVALTPGTGYFVQTVGAEPGSPTAGSMFWVSDTGVRYGIDTAEDDKVVAALGLSTSPLPVPWSVLSQFAAGPALSRGDALVAHDAVSTNPNSARMEASR
B3: EccD3 (natural protein)
chain: MSENTVMPIVRVAVLAAGDDGGRLTEMALPSELPLREILPAVQRIVQPARENDGAADPAAAPNPVRLSLAPIGGAPFSLDATLDTVGVVDGDLLALQAVPSGPPAPRIVEDIADAAVIFSEARRRQWGPTHIARGAALALIGLILVGTGLSVAHRVITGDLLGQFIVSGIALATVIAALAVRNRSAVLATSLAVTALVPVAAAFALGVPGDFGAPNVLLAAAGVAAWSLISMAGSPDDRGIAVFTATAVTGVGVLLVAGAASLWVISSDVIGCALVLLGLIVTVQAAQLSAMWARFPLPVIPAPGDPTPAARPLSVLADLPRRVRVSQAHQTGVIAAGVLLGVAGSVALVSSANASPWAWYIVVAAAAGAALRARVWDSAACKAWLLGHSYLLAVALLVAFVIGDRYQAALWALAALAVLVLVWIVAALNPKIASPDTYSLPMRRMVGFLATGLDASLIPVMALLVGLFSLVLDR

Assays:
Assay in all cases: cryo-EM structure
EccD3 = target: B3
cryo-EM structure = target: the molecule itself
EccC3 = target: T1, EccC3 (M. smegmatis (endogenous in M. …, UniProt A0QQ40 1-1325))
T1 sequence: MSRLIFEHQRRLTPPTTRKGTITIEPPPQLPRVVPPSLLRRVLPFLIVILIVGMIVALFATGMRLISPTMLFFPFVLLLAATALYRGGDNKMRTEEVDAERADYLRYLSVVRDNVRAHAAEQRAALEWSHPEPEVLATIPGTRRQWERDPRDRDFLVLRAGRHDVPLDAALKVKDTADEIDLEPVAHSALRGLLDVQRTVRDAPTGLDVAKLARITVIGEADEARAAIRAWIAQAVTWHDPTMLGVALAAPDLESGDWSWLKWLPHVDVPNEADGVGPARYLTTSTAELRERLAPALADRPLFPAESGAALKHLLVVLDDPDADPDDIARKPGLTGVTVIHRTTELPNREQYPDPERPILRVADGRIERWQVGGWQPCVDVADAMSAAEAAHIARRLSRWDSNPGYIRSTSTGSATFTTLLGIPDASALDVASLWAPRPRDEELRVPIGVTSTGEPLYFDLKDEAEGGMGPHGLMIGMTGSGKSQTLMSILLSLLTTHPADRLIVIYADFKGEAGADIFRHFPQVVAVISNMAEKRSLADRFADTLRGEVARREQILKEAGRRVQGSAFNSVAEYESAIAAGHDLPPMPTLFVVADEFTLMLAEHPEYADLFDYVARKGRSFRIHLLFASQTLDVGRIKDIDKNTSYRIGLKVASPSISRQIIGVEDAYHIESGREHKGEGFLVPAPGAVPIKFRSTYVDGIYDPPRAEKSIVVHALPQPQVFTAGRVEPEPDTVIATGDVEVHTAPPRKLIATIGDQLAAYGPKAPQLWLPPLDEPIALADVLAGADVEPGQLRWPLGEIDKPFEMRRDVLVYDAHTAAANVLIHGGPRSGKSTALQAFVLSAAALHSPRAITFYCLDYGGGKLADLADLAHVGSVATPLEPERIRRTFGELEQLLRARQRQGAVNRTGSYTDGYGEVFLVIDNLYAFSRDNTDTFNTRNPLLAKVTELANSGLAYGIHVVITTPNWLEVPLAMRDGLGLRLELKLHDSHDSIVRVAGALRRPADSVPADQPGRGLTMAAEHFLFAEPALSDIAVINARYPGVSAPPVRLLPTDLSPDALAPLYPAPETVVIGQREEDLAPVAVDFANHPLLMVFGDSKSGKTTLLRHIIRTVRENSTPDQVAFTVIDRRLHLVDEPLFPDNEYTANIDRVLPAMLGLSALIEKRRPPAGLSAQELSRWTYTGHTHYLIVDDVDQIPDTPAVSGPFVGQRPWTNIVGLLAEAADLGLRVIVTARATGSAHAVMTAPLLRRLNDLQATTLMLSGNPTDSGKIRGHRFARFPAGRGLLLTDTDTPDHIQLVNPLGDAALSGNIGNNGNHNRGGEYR

EccB3 = target: B2

Does B1 bind (EccD3)?
Result: binds

Does B2 bind (cryo-EM structure)?
Result: binds

Does B2 bind (EccC3)?
Result: binds

Which “stoichiometry N” value (cryo-EM structure) does the source give for B3 here?
The value was 2.

Does B3 bind (EccC3)?
Result: binds

Does B3 bind (EccB3)?
Result: binds
